Biological target: Spef1 K204Q/K206Q/R207Q/R215Q/R218Q mutant (full-length) (mouse) (UniProt Q99JL1)
Test: SEC-MALS

Work on “Spef1 K204Q/K206Q/R207Q/R215Q/R218Q mutant (full-length) (from UniProt Q99JL1 1-234) (natural protein)” yielded a stoichiometry N of 2.

Source: doi:10.1101/2025.07.31.667833
